These results are taken from PMC9601244.

The data set deals with NGAL (neutrophil gelatinase-associated lipocalin) (UniProt P80188 24-198, C107S). The experiment in a line: dipstick lateral-flow sandwich assay.
Chain of NGAL (neutrophil gelatinase-associated lipocalin) (P80188 24-198 C107S): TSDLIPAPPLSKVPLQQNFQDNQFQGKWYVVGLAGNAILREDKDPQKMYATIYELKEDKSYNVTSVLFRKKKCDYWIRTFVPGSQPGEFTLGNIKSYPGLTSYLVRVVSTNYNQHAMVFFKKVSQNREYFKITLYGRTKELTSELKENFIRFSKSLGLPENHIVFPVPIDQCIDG

Consider ATGGCGGAGCTGGATAGTATAGTCGG (ssDNA) [NGAL truncated aptamer, biotinylated (26-base)], for which the binding result was “binds”.
